Assay results: patent US20220096649A1 (TALLAC THERAPEUTICS, published 2022)

Columns and labels:
Test in all cases: SPR, antibody on GLC chip, SIRP as analyte
SIRP-α mouse BL6 = molecular target: T1, SIRP-α mouse BL6 (mouse (BL6), UniProt P97797 32-150, limits assumed)
T1 construct: Soluble analyte in SPR
T1 sequence (looked up): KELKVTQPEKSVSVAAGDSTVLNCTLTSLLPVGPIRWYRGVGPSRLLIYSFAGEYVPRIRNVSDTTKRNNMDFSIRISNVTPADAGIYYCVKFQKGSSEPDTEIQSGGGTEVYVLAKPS
Protocol: (§1) The running buffer was PBS pH 7.4 with 0.01% TWEEN-20 (PBST+). All analytes were used at their nominal concentrations as determined by A280 absorbance and using their molar calculated extinction coefficient. Analytes were injected in a “one-shot” kinetic mode as described (see, e.g., Bravman et al., Anal. Biochem. 2006, 358, 281-288).
(§2) For the method using a GLC chip, the analytes were injected and flowed over anti-SIRPα antibodies immobilized (˜1000 RUs) on GLC chips using Proteon Amine Coupling Kit. For the immobilization step, the GLC chip was activated with EDAC/Sulpho-NHS 1:1 (Biorad) diluted 1/100 for 300 s at 25 μL/min. Anti-SIRPα antibodies were diluted to 80 nM concentration in 10 mM sodium acetate buffer pH 4.5 and immobilized to the chip at 30 μL/min for 50 s. Chip was inactivated with ethanolamine for 300 s at 25 μL/min. The analytes (e.g., SIRP-α from different species, SIRP-β, SIRP-γ) were injected in a “one-shot” kinetic mode at nominal concentrations of 100, 33, 11, 3.7, 1.2, and 0 nM. Association times were monitored for 90 s at 100 uL/min, and dissociation times were monitored for 1200 s. The surfaces were regenerated with a 2:1 v/v blend of Pierce IgG elution buffer/4M NaCl.
(§3) Biosensor data were double-referenced by subtracting the interspot data (containing no immobilized protein) from the reaction spot data (immobilized protein) and then subtracting the response of a buffer “blank” analyte injection from that of an analyte injection. Double-referenced data were fit globally to a simple Langmuir model and the KD value was calculated from the ratio of the apparent kinetic rate constants (KD=kd/kₐ).

SIRP-α cynomolgus = molecular target: T2, SIRP-α cynomolgus (cynomolgus, UniProt A0A2K5VYQ9 31-148)
T2 construct: Soluble analyte in SPR; also called cynomologous monkey SIRP-α
T2 sequence: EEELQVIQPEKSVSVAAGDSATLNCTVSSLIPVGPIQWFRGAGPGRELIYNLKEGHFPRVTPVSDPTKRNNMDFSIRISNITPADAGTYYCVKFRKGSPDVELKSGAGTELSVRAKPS
Protocol: as §1, §2, §3

Human SIRPβ = molecular target: T3, Human SIRPβ (human, UniProt O00241 30-148)
T3 construct: Soluble analyte in SPR
Protocol: as §1, §2, §3

Human SIRPγ = molecular target: T4, Human SIRPγ (human, UniProt Q9P1W8 29-147, limits assumed)
T4 construct: Soluble analyte in SPR
Protocol: as §1, §2, §3

SIRP-α human v2 = molecular target: T5, SIRP-α human v2 (human, UniProt P78324 31-149, limits assumed)
T5 construct: Soluble analyte in SPR
Protocol: as §1, §2, §3

T5 sequence (P78324 other isoform, or with tags, fused parts or gaps limits assumed): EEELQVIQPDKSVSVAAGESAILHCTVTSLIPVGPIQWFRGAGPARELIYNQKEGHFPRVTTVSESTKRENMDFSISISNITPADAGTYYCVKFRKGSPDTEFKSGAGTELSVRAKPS
T4 sequence (Q9P1W8 29-147 limits assumed): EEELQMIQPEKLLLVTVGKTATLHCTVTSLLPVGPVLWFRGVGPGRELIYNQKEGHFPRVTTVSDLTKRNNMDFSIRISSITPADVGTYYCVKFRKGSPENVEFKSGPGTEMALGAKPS
T3 sequence (O00241 30-148): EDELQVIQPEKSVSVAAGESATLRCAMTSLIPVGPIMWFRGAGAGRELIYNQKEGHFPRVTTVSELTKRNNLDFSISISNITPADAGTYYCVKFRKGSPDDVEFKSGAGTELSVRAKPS

Kd (SIRP-α cynomolgus): 0.13 nM
Kd (Human SIRPβ): 0.19 nM
Kd (Human SIRPγ): 0.73 nM
Kd (SIRP-α human v2): 0.018 nM
B1: Anti-SIRP-α antibody 135, light chain Mut, heavy chain Mut (antibody, V domains shown)
VH: EVQLVESGGGVVQPGGSLRLSCAASGFSFSIYAVSWVRQAPGKGLEWVSTIGADDTYYADSVKGRFTISRDNSKNTLYLQMNSLRAEDTAVYYCAKDSTVGWSGDFFDYWGQGTLVTVSS
VL: EIVLTQSPATLSVSPGERVTLSCRASQNVRSDIAWYQQKPGQAPRLLIYAASSRDTGIPARFSGSGSGTDFTLTISSLQSEDFGVYYCQQYYDWPPFTFGGGTKVEIK
notes: Whole antibody
binding result (SIRP-α mouse BL6): no binding (tested: 100 nM (highest analyte concentration))
